Measured values published in patent publication US20080274978A1 (POSTECH FOUNDATION, published 2008).
Where no end group is shown, it is not given here. [ ]: non-standard residue; d: D form.

T1: Formyl peptide receptor like 1 (FPRL1) (human, UniProt P25090 1-351)
T1 sequence (looked up): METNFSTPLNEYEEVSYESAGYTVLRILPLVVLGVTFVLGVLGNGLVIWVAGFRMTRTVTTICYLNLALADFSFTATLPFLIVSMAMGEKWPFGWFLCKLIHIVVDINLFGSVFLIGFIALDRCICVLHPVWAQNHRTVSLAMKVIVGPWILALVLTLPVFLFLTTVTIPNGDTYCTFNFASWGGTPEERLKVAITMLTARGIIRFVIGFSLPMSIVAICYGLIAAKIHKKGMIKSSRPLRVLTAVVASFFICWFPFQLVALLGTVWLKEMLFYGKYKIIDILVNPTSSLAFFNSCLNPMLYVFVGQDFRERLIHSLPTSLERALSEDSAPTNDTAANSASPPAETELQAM


Target: T1, Formyl peptide receptor like 1 (FPRL1)
Assay: cell-based or functional assay

In the case of [dW]WRWWM (not fully specified; printed as wWRWWM) [wWRWWM], the “antagonistic activity on intracellular calcium concentration increase, relative to WRWWWW (SEQ ID NO:4)” value is reported as roughly 100 times.

Target: T1, Formyl peptide receptor like 1 (FPRL1)
Assay: cell-based or functional assay
Remark: another data set of the same source

Point of comparison: RWWW, “Ca^2+ (FPRL1) IC50” value 600 nM. Against it:
- LWWWWW — within 1.5-fold, 500 nM
- WRRWWW — higher, > 10000 nM
- WWWWMR — 9.5-fold higher, 5700 nM
- WWRWWM — 7.2-fold lower, 83 nM
- [dW]WRWWM (not fully specified; printed as wWRWWM) [wWRWWM] — 73-fold lower, 8.2 nM
- WWWWRW — 4.5-fold higher, 2700 nM
- WWWWWW — higher, > 10000 nM
- [dW]WRWWW [wWRWWW] — 5.5-fold lower, 110 nM
- RWWM — within 1.5-fold, 650 nM
- WWW[dW] [WWWw] — higher, > 10000 nM
- WWWWW[dW] [WWWWWw] — higher, > 10000 nM
- WWWWWM — 4.6-fold lower, 130 nM
- WRW — higher, > 10000 nM
- WWWM — 9.8-fold higher, 5900 nM
- WWWW — within 1.5-fold, 860 nM
- WRWW — higher, > 10000 nM
- RWW[dW] [RWWw] — higher, > 10000 nM
- WWRWWW — 10-fold lower, 58 nM
- WWWRWW — within 1.5-fold, 470 nM
- LRWWWW — 1.8-fold higher, 1100 nM
- WWWWWR — 2.7-fold lower, 220 nM
- WRWWWW-NH2 [Trp-Arg-Trp-Trp-Trp-Trp-CONH2 (WRWWWW, WRW^4)] — 1.7-fold higher, 1000 nM

Target: T1, Formyl peptide receptor like 1 (FPRL1)
Assay: displacement of 125I-WKYMVm (50 pM) from FPRL1-expressing RBL-2H3 cells
Method: Ligand binding analysis was performed as previously described (24). Briefly, FPR-expressing RBL-2H3 cells were seeded at 1×10⁵ cells per well into a 24 well plate and cultured overnight. […] The samples were then washed 5 times with ice-cold binding buffer, and 200 μl of lysis buffer (20 mM Tris, pH 7.5, 1% Triton X-100) was added to each well. After 20 min at room temperature, the lysates were collected and counted using a γ-ray counter (24).

Point of comparison: WRWWWW-NH2 [Trp-Arg-Trp-Trp-Trp-Trp-CONH2 (WRWWWW, WRW^4)], IC50 230 nM. Against it:
- RRWWWW-NH2 [Arg-Arg-Trp-Trp-Trp-Trp-CONH2 (RRWWWW, RRW^4)] — 10-fold higher, 2400 nM
- DRWWWW-NH2 [Asp-Arg-Trp-Trp-Trp-Trp-CONH2 (DRWWWW, DRW^4)] — 15-fold higher, 3400 nM
- RHWWWW-NH2 [Arg-His-Trp-Trp-Trp-Trp-CONH2 (RHWWWW, RHW^4)] — 14-fold higher, 3200 nM
